In patent publication CN111196852A (SICHUAN KELUN BOTAI BIOMEDICAL CO LTD; ANYUAN MEDICINE TECH …, dated 2020) one finds EC50 and Kd data, which are given here for 2 molecules.

One experiment addresses T1, 人TIGIT (human, UniProt Q495A1 22-141, limits assumed).
T1 construct: also called 人TIGIT抗原
T1 sequence (looked up): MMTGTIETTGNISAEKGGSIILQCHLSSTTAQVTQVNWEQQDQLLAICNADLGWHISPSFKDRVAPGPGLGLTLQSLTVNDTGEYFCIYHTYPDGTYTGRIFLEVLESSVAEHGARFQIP
In words: ELISA, human TIGIT coated, HRP goat anti-mouse IgG. A general note: In an ELISA, binding on a coated surface is turned into a signal by an enzyme label.

The target of a further experiment is T2, 人TIGIT-His (human, UniProt Q495A1 22-141, limits assumed).
T2 construct: Loaded on Ni-NTA sensors in the BLI runs; also called Human TIGIT(His tag); not shown: His tag
T2 sequence (looked up): T1 sequence (looked up)
The experiment can be described thus: BLI (ForteBio Octet QK), Human TIGIT(His tag) on Ni-NTA sensor, antibody 3.125-100 nM; order of magnitude only. Background: In BLI a coated tip is dipped into the sample, and binding shifts an interference pattern.

The term EC50 denotes the concentration at which the effect is half-maximal. Lower therefore signals higher potency in that assay. The term Kd denotes the free concentration of one partner at which half of the binding sites on the other are occupied at equilibrium, for simple one-to-one binding. The low end stands for higher affinity, the high end for lower affinity.

B1: 鼠单克隆抗体Mab21 (antibody, mouse IgG2b, V domains shown)
VH: EVQLQQSGAELVKPGASVRLSCTASGFNIKDTYINWVKQRPEQGLEWIGRIDPANGDTKYAPKFQGKATITTDTSSNTAYLQLSSLTSEDTAVYYCPKSGDYGWYFDVWGAGTTVTVSS
VL: DIVLTQSPASLSVTPGDSVSLSCRASQSISNNLHWYQQKSHESPRLLIKYASQSISGIPSRFSGSGSGTYFTLSINSVETEDFGMYFCQQSNSWLTFGAGTKLELKR
notes: Mouse IgG2b (Kappa), purified from hybridoma #21 on protein G; also called 杂交瘤细胞株#21
Take B1: the EC50 with 人TIGIT is roughly 0.018 nM. The same molecule registered a Kd in the experiment with 人TIGIT-His of roughly 0.01 nM.

B2: 鼠单克隆抗体Mab7 (antibody, mouse IgG1, V domains shown)
VH: QVQLQQSGAELVSPGTSVKVSCKASGYAFTNYLIEWIYQRPGQGLEWIGVINPGSGGTIYNEKFKGKATLTADKSSNIAYLQLSSLTSDDSAVYFCAGSYGSSYTFDYWGQGTTLTVSS
VL: DIVMTQSHKFLSTSVGDSVSITCKASQHVSTAVVWYQQKPGQSPKLLIYSPSYRYTGVPDRFTGSGSGTDFTFTISSVQAEDLAVYYCHQHYSTPWTFGGGTKLEIKR
notes: Mouse IgG1 (Kappa), purified from hybridoma #7 on protein G; also called 杂交瘤细胞株#7
In the case of B2, the concentration giving a half-maximal response (EC50) with 人TIGIT was roughly 0.018 nM. Further, in the experiment with 人TIGIT-His, the Kd is roughly 0.001 nM.
